Target: Flag–Rab32 (human) (UniProt Q13637)
Experiment: co-IP

Sequence of Flag–Rab32 (human) (Q13637 whole entry): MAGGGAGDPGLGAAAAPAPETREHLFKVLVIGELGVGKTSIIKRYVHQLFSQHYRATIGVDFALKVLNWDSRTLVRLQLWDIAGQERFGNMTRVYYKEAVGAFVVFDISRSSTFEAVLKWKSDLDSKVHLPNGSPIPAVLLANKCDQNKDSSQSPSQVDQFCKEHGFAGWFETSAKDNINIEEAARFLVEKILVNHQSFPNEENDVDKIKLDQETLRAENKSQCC
Sequence of endogenous PKA holoenzyme (P13861 whole entry, one chain of several): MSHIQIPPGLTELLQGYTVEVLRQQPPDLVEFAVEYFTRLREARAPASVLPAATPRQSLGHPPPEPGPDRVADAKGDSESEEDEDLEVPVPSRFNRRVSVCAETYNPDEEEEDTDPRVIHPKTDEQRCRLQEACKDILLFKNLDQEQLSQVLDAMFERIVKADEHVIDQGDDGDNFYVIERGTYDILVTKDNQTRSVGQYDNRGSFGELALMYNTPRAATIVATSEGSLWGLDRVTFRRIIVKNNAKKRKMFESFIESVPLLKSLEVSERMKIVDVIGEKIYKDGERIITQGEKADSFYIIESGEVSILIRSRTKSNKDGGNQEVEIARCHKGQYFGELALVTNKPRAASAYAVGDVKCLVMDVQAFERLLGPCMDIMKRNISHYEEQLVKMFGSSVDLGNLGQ

fold enrichment of PKA activity in the immune complexes: 7.1 fold
Substance: endogenous PKA holoenzyme (from UniProt P13861 1-404; P17612 1-351) (complex)

Reference: paper PMC2174006
